Source: patent publication CN118206654A (BEILAI PHARMACEUTICAL CO LTD, dated 2024)

T1: Biotin-IL-17A-His (human, UniProt Q16552 24-155, limits assumed, biotin (site not stated))
T1 construct: also called 人IL-17A蛋白 (biotinylated)
T1 sequence: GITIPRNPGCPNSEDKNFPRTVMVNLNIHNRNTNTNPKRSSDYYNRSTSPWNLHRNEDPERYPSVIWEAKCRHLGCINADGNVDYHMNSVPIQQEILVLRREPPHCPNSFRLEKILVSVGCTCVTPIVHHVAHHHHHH

B1: 阳性对照抗体Ixekizumab (antibody, human IgG4 S228P, kappa, V domains shown)
VH: QVQLVQSGAEVKKPGSSVKVSCKASGYSFTDYHIHWVRQAPGQGLEWMGVINPMYGTTDYNQRFKGRVTITADESTSTAYMELSSLRSEDTAVYYCARYDYFTGTGVYWGQGTLVTVSS
VL: DIVMTQTPLSLSVTPGQPASISCRSSRSLVHSRGNTYLHWYLQKPGQSPQLLIYKVSNRFIGVPDRFSGSGSGTDFTLKISRVEAEDVGVYYCSQSTHLPFTFGQGTKLEIKR
notes: also called 阳性抗体

Experiments:
[1] = biological target: IL-17RA and IL-17RC co-expressed on 293F-IL-17RA-IL-17Rc-ACT1-NFκB-Luc cells (UniProt Q96F46); assay: flow cytometry; IL17A-His on 293F-IL-17RA-IL-17Rc-ACT1-NFκB-Luc cells, APC anti-His
Biotin-IL-17A-His = biological target: T1, Biotin-IL-17A-His; assay: ELISA; antibody coated at 2 ug/mL, Biotin-IL-17A-His titrated from 10 ug/mL (5-fold, 7 points), HRP-Streptavidin; the concentration is that of IL-17A

Molecule | 阳性率 [1] | EC50 (Biotin-IL-17A-His)
Human IL-17A重组蛋白 (C-terminal 6×His) (from UniProt Q16552 24-155) (ligand) | > 90% | 
B1 |  | 10.1 µg/mL
